Experimental data: US20090136495A1 (Eli Lilly, published 2009)
Numbering of substitutions follows the chain as printed. Where no end group is shown, it is not given here.

T1: human hepcidin-25 (human, not fully specified)
T1 construct: also called human mature hepcidin
T1 peptide: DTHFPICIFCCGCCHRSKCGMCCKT

T2: cynomolgus monkey hepcidin-25 (cynomolgus monkey, UniProt A7XEI3 60-84, not fully specified)
T2 construct: mature; also called mature cynomolgous monkey hepcidin
T2 peptide: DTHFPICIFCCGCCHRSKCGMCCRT

T3: mouse hepcidin-25 (mouse, UniProt Q9EQ21 59-83)
T3 construct: mature
T3 peptide (looked up): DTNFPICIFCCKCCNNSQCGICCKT

T4: rat hepcidin-25 (rat, UniProt Q99MH3 60-84)
T4 construct: mature
T4 peptide (looked up): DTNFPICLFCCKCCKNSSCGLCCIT

B1: Fab 3.12 (Fab, V domains shown)
VH: QVQLVQSGAEVKKPGSSVKVSCKASGYTFLIYPISWVRQAPGQGLEWMGNFHPYLGVTNYLEKFKGRVTITADKSTSTAYMELSSLRSEDTAVYYCARGGTGSFDYWGQGTTVTVSS
VL: DIQMTQSPSSLSASVGDRVTITCSASSRVSSTYLFWYQQKPGKAPKLLIYRTSTLTSGVPSRFSGSGSGTDFTLTISSLQPEDFATYYCQQWSGYPFVFGGGTKVEIK
notes: Fab with human kappa, from E. coli periplasm; frameworks O2 and VH1-69
B2: Fab 1.7 (Fab, V domains shown)
VH: B1 VH with L30T, V57D, N59R, L61V
VL: B1 VL with T56V
notes: Fab with human kappa
B3: Fab 3.23 (Fab, V domains shown)
VH: B1 VH with L61V
VL: B1 VL with T54P, T56A
notes: as for B1
B4: Fab Hu22 (Fab, V domains shown)
VH: B1 VH with L30T, V57D, L61N
VL: B1 VL with T56A, V98T
notes: as for B1
B5: Mab 3.23 (antibody, human IgG4 S228P, kappa, V domains shown)
VH: B1 VH with L61V
VL: DIQMTQSPSSLSASVGDRVTITCSASSRVSSTYLFWYQQKPGKAPKLLIYRTSPLASGVPSRFSGSGSGTDFTLTISSLQPEDFATYYCQQWSGYPFVFGGGTKVEIKR
B6: Mab 3.8 (antibody, human IgG4, V domains shown)
VH: B1 VH
VL: B5 VL with V98T
notes: Human engineered Mab, human IgG4
B7: Mab Hu22 (antibody, human IgG4 S228P, kappa, V domains shown)
VH: B1 VH with L30T, V57D, L61N
VL: B5 VL with P54T, V98T
B8: Mab 3.12 (antibody, human IgG4 S228P, kappa, V domains shown)
VH: B1 VH
VL: B5 VL with P54T, A56T
B9: Mab L1.5 (antibody, human IgG4 S228P, kappa, V domains shown)
VH: B1 VH
VL: B5 VL with S26E, V98T

Molecular target: T1, human hepcidin-25
Experiment: SPR (BIAcore), Fab captured on goat anti-human kappa, human hepcidin-25 injected, 25 C
Experimental: (§1) Except as noted, all reagents and materials are purchased from BIAcore® AB (Upsala, Sweden). All measurements are performed at 25° C. Samples are dissolved in HBS-EP buffer (150 mM sodium chloride, 3 mM EDTA, 0.05% (w/v) surfactant P-20, and 10 mM HEPES, pH 7.4). To capture Fabs with human kappa, goat-anti-human kappa is immobilized on flow cells 1 to 4 of a CM5 sensor chip at a level of 5000-10000 response units (Rus) using an amine coupling kit. To capture Mabs with mouse IgG1, goat-anti-mouse Fc gamma is immobilized on flow cells 1 to 4 of a CM5 sensor chip at a level of 5000-10000 Rus using an amine coupling kit. To capture antibodies with human IgG4, protein A is immobilized on flow cells 1 to 4 of a CM4 sensor chip at a level of 400-700 Rus using an amine coupling kit. Fabs prepared from E. coli periplasma and Mabs prepared from mammalian cell culture are evaluated using multiple analytical cycles. […] The measurements are obtained at 25° C. and the association and dissociation rates for each cycle are evaluated using a “1:1 with mass transfer” binding model in the BLAevaluation software.

Binder	Kd	koff	kon
B1	0.0883 nM	0.000347 s⁻¹	3.94e+06 M⁻¹ s⁻¹
B2	0.422 nM	0.00148 s⁻¹	3.8e+06 M⁻¹ s⁻¹
B3	0.0788 nM	0.000278 s⁻¹	3.53e+06 M⁻¹ s⁻¹
B4	0.647 nM	0.00456 s⁻¹	7.05e+06 M⁻¹ s⁻¹

molecular target: ferroportin C-terminally fused with green fluorescent protein (human), Q9NP59; experiment: cell-based or functional assay
Sequence (Q9NP59 whole entry, the tested form may be a part): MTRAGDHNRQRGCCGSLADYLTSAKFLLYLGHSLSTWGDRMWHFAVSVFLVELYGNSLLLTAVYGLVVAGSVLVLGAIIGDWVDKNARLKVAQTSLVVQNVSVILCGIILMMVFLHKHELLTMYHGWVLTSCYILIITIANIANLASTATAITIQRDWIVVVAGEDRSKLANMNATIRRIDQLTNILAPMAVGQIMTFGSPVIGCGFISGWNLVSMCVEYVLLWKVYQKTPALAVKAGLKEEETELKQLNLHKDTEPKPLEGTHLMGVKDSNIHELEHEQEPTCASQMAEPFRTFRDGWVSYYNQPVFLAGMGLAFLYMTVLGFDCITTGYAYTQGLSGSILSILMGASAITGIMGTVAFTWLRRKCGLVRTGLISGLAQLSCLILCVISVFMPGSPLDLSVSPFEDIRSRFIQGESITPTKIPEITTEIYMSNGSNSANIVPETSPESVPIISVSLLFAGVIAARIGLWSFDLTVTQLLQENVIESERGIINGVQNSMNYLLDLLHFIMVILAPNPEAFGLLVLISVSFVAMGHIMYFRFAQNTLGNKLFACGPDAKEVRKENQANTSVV

Binder	hepcidin-induced internalization and degradation of ferroportin (FPN-GFP fluorescence in HEK 293 cells), concentration of maximal effect
DTHFPICIFCCGCCHRSKCGMCCKT (ends and bridges not checked; cysteine pairing not given here) [human hepcidin-25]	0.5 µM

Molecular target: T2, cynomolgus monkey hepcidin-25
Experiment: SPR (BIAcore), captured Mab, cynomolgus monkey hepcidin-25 injected, 25 C
Experimental: as §1

Binder	Kd	koff	kon
B5	0.0888 nM	0.000577 s⁻¹	6.51e+06 M⁻¹ s⁻¹
B6	0.00933 nM	0.00066 s⁻¹	7.07e+07 M⁻¹ s⁻¹
B7	0.986 nM	0.00816 s⁻¹	8.13e+06 M⁻¹ s⁻¹

Molecular target: T1, human hepcidin-25
Experiment: SPR (BIAcore), Mab captured on protein A, human hepcidin-25 injected, 25 C
Experimental: as §1

Binder	Kd	koff	kon
B5	0.0994 nM	0.000659 s⁻¹	6.2e+06 M⁻¹ s⁻¹
B6	0.105 nM	0.000768 s⁻¹	5.58e+06 M⁻¹ s⁻¹
B8	0.0599 nM	0.00022 s⁻¹	3.68e+06 M⁻¹ s⁻¹
B7	0.764 nM	0.00864 s⁻¹	1.09e+07 M⁻¹ s⁻¹
B9	0.0342 nM	0.000182 s⁻¹	5.31e+06 M⁻¹ s⁻¹

Molecular target: T3, mouse hepcidin-25
Experiment: SPR (BIAcore), captured Mab, mouse hepcidin-25 injected, 25 C
Experimental: as §1

Binder	Kd	koff	kon
B5	50.1 nM	0.192 s⁻¹	3.83e+06 M⁻¹ s⁻¹
B6	34.6 nM	0.124 s⁻¹	3.57e+06 M⁻¹ s⁻¹
B7	77.6 nM	0.126 s⁻¹	1.62e+06 M⁻¹ s⁻¹

Molecular target: T4, rat hepcidin-25
Experiment: SPR (BIAcore), 25 C
Experimental: as §1

Binder	binding result
B5	no binding
B7	no binding

Molecular target: T2, cynomolgus monkey hepcidin-25
Experiment: SPR (BIAcore), 25 C
Experimental: as §1

Binder	fold lower KD than for human hepcidin-25
B6	> 10 fold
